These results are taken from PMC5656002 (ACS infectious diseases, 2016).

Read-outs that look alike come from different tables or passages of the source.

The target in assay [1] is SME-1 beta-lactamase (Serratia marcescens) (UniProt P52682). The conditions noted are these: cited from earlier work.
In assay [2] the target is KPC-2 beta-lactamase (Klebsiella pneumoniae) (UniProt Q9F663). The conditions noted are these: cited from earlier work.
Assay [3] deals with CTX-M-14 beta-lactamase (Escherichia coli). Particulars: cited from earlier work.
The target of assay [4] is T1, KPC-2 β-lactamase (purified) (UniProt Q9F663 30-293). Kind of assay: cell-based or functional assay.
In assay [5] the target is T1, KPC-2 β-lactamase (purified). Put plainly: enzyme inhibition assay.
The target is the same in assay [6]. Put plainly: enzyme inhibition assay. This is another data set of the same source.
Assay [7] shares this target. Kind of assay: cell-based or functional assay. This is another data set of the same source.
For assay [8] the target is unchanged. Kind of assay: enzyme inhibition assay. The source holds these as a separate data set.
In assay [9] the target is T2, TEM-1 β-lactamase (purified) (UniProt P62593 24-286). Put plainly: enzyme inhibition assay.
Assay [10] has as its target T2, TEM-1 β-lactamase (purified). Put plainly: enzyme inhibition assay. This is another data set of the same source.
Assay [11] concerns the target T1, KPC-2 β-lactamase (purified). Kind of assay: activity-based association and dissociation kinetics.
The target of the next assay is T3, SME-1 β-lactamase (UniProt P52682 28-294).
T3 sequence: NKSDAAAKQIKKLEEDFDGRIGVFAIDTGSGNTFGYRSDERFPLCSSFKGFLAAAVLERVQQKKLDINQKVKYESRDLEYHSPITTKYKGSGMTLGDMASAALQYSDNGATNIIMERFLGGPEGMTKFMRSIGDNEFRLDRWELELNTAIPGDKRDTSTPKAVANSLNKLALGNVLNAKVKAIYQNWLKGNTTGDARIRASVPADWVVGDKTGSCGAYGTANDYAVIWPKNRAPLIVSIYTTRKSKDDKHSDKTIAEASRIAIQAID
Put plainly: enzyme inhibition assay.

A further assay has as its target CTX-M-14 β-lactamase (UniProt Q9L5C7 1-291). Kind of assay: enzyme inhibition assay.
The target of assay [12] is T2, TEM-1 β-lactamase (purified). Put plainly: enzyme inhibition assay. The source holds these as a separate data set.
Another assay addresses T4, SHV-1 β-lactamase (UniProt P0AD64 22-286).
T4 sequence (looked up): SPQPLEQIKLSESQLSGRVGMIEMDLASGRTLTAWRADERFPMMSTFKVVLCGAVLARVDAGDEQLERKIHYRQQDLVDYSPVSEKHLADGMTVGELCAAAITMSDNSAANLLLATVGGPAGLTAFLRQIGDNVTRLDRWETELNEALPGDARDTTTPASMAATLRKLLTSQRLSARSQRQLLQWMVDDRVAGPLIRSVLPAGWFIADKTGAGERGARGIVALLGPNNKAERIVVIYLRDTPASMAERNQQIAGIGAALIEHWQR
Put plainly: enzyme inhibition assay.

Usually Ki stands for the dissociation constant of the complex between target and ligand, obtained from inhibition or displacement. For BLIP (from UniProt P35804), the Ki in assay [1] was 2.4 nM; in assay [2], 0.082 nM; in assay [3] it was 800 nM.

B1: β-lactamase inhibitory protein (BLIP), wild type (natural protein, Streptomyces clavuligerus, UniProt P35804 37-201, looked up)
chain: AGVMTGAKFTQIQFGMTRQQVLDIAGAENCETGGSFGDSIHCRGHAAGDYYAYATFGFTSAAADAKVDSKSQEKLLAPSAPTLTLAKFNQVTVGMTRAQVLATVGQGSCTTWSEYYPAYPSTAGVTLSLSCFDVDGYSSTGFYRGSAHLWFTDGVLQGKRQWDLV
Consider B1, for which the “ampicillin MIC of E. coli TP142 (chromosomal blaKPC-2) carrying the BLIP plasmid” value (shortened to “ampicillin MIC of E. coli TP142”) in assay [4] was 1 µg/mL. The Ki in [5] amounted to 0.2 ± 0.2 nM; in assay [6], 1.2 ± 0.4 nM.

B2: BLIP K74T:R160G (natural protein)
chain: AGVMTGAKFTQIQFGMTRQQVLDIAGAENCETGGSFGDSIHCRGHAAGDYYAYATFGFTSAAADAKVDSKSQETLLAPSAPTLTLAKFNQVTVGMTRAQVLATVGQGSCTTWSEYYPAYPSTAGVTLSLSCFDVDGYSSTGFYRGSAHLWFTDGVLQGKGQWDLV
On to B2, for which, in [7], the “ampicillin MIC of E. coli TP142” value is not above 3 µg/mL. The molecule also returned a Ki in assay [8] of 150 ± 57 nM.

B3: BLIP W112D (natural protein)
chain: AGVMTGAKFTQIQFGMTRQQVLDIAGAENCETGGSFGDSIHCRGHAAGDYYAYATFGFTSAAADAKVDSKSQEKLLAPSAPTLTLAKFNQVTVGMTRAQVLATVGQGSCTTDSEYYPAYPSTAGVTLSLSCFDVDGYSSTGFYRGSAHLWFTDGVLQGKRQWDLV
B3: the “ampicillin MIC of E. coli TP142” value in [4] stood at 1 µg/mL. Moreover, the Ki in [5] came out at 587 ± 63 nM; in [9], 1270 ± 212 nM; in assay [6], 1080 ± 551 nM; in assay [10], 1190 ± 701 nM.

B4: BLIP E73K:K74T (natural protein)
chain: AGVMTGAKFTQIQFGMTRQQVLDIAGAENCETGGSFGDSIHCRGHAAGDYYAYATFGFTSAAADAKVDSKSQKTLLAPSAPTLTLAKFNQVTVGMTRAQVLATVGQGSCTTWSEYYPAYPSTAGVTLSLSCFDVDGYSSTGFYRGSAHLWFTDGVLQGKRQWDLV
As a reminder, the Kd is a measure of binding affinity in units of concentration. A higher Kd goes with lower affinity. Usually koff stands for the rate constant with which the complex falls apart. Low readings indicate a long-lived complex, high ones a short-lived complex. For orientation: kon means the second-order rate constant of association. Low values mean slow association, high ones fast association. As to B4, the “ampicillin MIC of E. coli TP142” value in assay [7] was not above 3 µg/mL. This molecule returned an inhibitory constant (Ki) in assay [8] of 1.6 ± 0.8 nM. In [11], this molecule gave a Kd of 1.3 nM, a koff of 0.0004 s⁻¹ and a kon of 300000 M⁻¹ s⁻¹.

B5: BLIP R160G (natural protein)
chain: AGVMTGAKFTQIQFGMTRQQVLDIAGAENCETGGSFGDSIHCRGHAAGDYYAYATFGFTSAAADAKVDSKSQEKLLAPSAPTLTLAKFNQVTVGMTRAQVLATVGQGSCTTWSEYYPAYPSTAGVTLSLSCFDVDGYSSTGFYRGSAHLWFTDGVLQGKGQWDLV
As for B5, the “ampicillin MIC of E. coli TP142” value in assay [4] came out at 0.75 µg/mL. Further, the inhibitory constant (Ki) in [5] is 0.4 ± 0.3 nM; in [9] it was 236 ± 85 nM; in assay [6] it was 0.9 ± 0.4 nM; in assay [10], 236 ± 115 nM.

B6: BLIP E73K (natural protein)
chain: AGVMTGAKFTQIQFGMTRQQVLDIAGAENCETGGSFGDSIHCRGHAAGDYYAYATFGFTSAAADAKVDSKSQKKLLAPSAPTLTLAKFNQVTVGMTRAQVLATVGQGSCTTWSEYYPAYPSTAGVTLSLSCFDVDGYSSTGFYRGSAHLWFTDGVLQGKRQWDLV
Consider B6, for which, in [4], the “ampicillin MIC of E. coli TP142” value came to 1.5 µg/mL. For the same molecule, the Ki in assay [5] amounted to 8.9 ± 6.3 nM; in assay [9], 2530 ± 578 nM; in assay [6], 13.7 ± 6.6 nM; in assay [10], 835 ± 172 nM.

B7: BLIP K74T:W112D (natural protein)
chain: AGVMTGAKFTQIQFGMTRQQVLDIAGAENCETGGSFGDSIHCRGHAAGDYYAYATFGFTSAAADAKVDSKSQETLLAPSAPTLTLAKFNQVTVGMTRAQVLATVGQGSCTTDSEYYPAYPSTAGVTLSLSCFDVDGYSSTGFYRGSAHLWFTDGVLQGKRQWDLV
Regarding B7, the Ki with SME-1 β-lactamase was 450 nM; with CTX-M-14 β-lactamase, more than 10000 nM; in [12] it was more than 10000 nM; with SHV-1 β-lactamase, more than 10000 nM; in assay [8], 0.4 ± 0.2 nM. Further, in assay [7], the “ampicillin MIC of E. coli TP142” value was not above 3 µg/mL. Further, in [11], the dissociation constant Kd stood at 0.13 nM. Besides, in assay [11], the koff is 3e-05 s⁻¹. The same molecule registered a kon in [11] of 200000 M⁻¹ s⁻¹.

B8: BLIP K74T (natural protein)
chain: AGVMTGAKFTQIQFGMTRQQVLDIAGAENCETGGSFGDSIHCRGHAAGDYYAYATFGFTSAAADAKVDSKSQETLLAPSAPTLTLAKFNQVTVGMTRAQVLATVGQGSCTTWSEYYPAYPSTAGVTLSLSCFDVDGYSSTGFYRGSAHLWFTDGVLQGKRQWDLV
As for B8, the “ampicillin MIC of E. coli TP142” value in [4] turned out to be 1.5 µg/mL. Moreover, the Ki in assay [5] amounted to 1.5 ± 1 nM; in assay [9] it was 151 ± 97 nM; in assay [6], 1.8 ± 2.8 nM; in assay [10], 110 ± 23 nM.

B9: BLIP E73K:R160G (natural protein)
chain: AGVMTGAKFTQIQFGMTRQQVLDIAGAENCETGGSFGDSIHCRGHAAGDYYAYATFGFTSAAADAKVDSKSQKKLLAPSAPTLTLAKFNQVTVGMTRAQVLATVGQGSCTTWSEYYPAYPSTAGVTLSLSCFDVDGYSSTGFYRGSAHLWFTDGVLQGKGQWDLV
With B9, the “ampicillin MIC of E. coli TP142” value in assay [7] was not above 3 µg/mL. For the same molecule, the Ki in assay [8] turned out to be 128 ± 30 nM. In assay [11], this molecule came in with a Kd of 60 nM, a koff of 0.03 s⁻¹ and a kon of 500000 M⁻¹ s⁻¹.
